Patent US5747660A, “Nucleic acid encoding prostaglandin F2α receptor regulatory protein” (priority 1995, dated 1998)

Columns and labels:
[1] = tested on: prostaglandin F2α receptor (FP); assay: [3H]PGF2α specific binding to COS cells cotransfected with FP cDNA and a test cDNA construct; assay type: cell-based, rat, mouse; details: COS cells cotransfected with FP + the named DNA; FP alone = 100
[2] = tested on: prostaglandin F2α receptor (FP); assay: Cotransfection of a third construct along with FP and FPRP, [3H]PGF2α binding; assay type: cell-based; details: FP + FPRP + the named third construct; FP + pSG5 = 100
Text: Therefore, a strategy based on cotransfection of a third construct (along with FP and FPRP) was pursued. These third party constructs included ones coding for the protease inhibitors alpha-l trypsin inhibitor and crmA, an inhibitor of cell death, bcl2, and few nonspecific control molecules including the vitamin D receptor, a secreted immunoglobulin molecule, and the empty parent vector pSG5 only. All groups and treatments were compared with control treatment of FP+pSG5 vs. FP+FPRP.

[3] = molecular target: prostaglandin F2α receptor (FP), cDNA construct whose species the place does not tell
[4] = molecular target: rat prostaglandin F2α receptor regulatory protein (FPRP) (rat)

Row | Molecule | % CONTROL, [^3 H]PGF2α specific binding [1] [%] | % Control [^3 H]PGF2α Binding [2] [%] | % control ^3 H!PGF2α specific binding, co-transfection [3] [% control] | % control ^3 H!PGF2α binding, third construct co-transfected with FP and FPRP [4] [% control]
1 | Vitamin D receptor: over-expressed control protein, cotransfected construct | 131 ± 7 | 36 ± 3 |  | 
2 | Prolactin Receptor |  |  | 130 | 
3 | crmA |  |  | 141 | 29
4 | TGN38 |  |  | 135 | 
5 | bcl-2 |  |  | 84 | 30
6 | 1 Trypsin Inhibitor: protease inhibitor alpha-l trypsin inhibitor, cotransfected construct | 141 ± 3 | 38 ± 3 |  | 
7 | Progesterone Receptor |  |  | 103 | 
8 | βPDGF Receptor |  |  | 90 | 
9 | Vitamin D receptor |  |  | 131 | 36
10 | alpha-1 trypsin inhibitor |  |  | 141 | 38
11 | bcl-2: an inhibitor of cell death, cotransfected construct | 84 ± 5 | 30 ± 3 |  | 
12 | Prolactin Receptor: over-expressed control protein, cotransfected construct (protein, UniProt P16471 25-622, looked up, over-expressed construct) Prolactin receptor: QLPPGKPEIFKCRSPNKETFTCWWRPGTDGGLPTNYSLTYHREGETLMHECPDYITGGPNSCHFGKQYTSMWRTYIMMVNATNQMGSSFSDELYVDVTYIVQPDPPLELAVEVKQPEDRKPYLWIKWSPPTLIDLKTGWFTLLYEIRLKPEKAAEWEIHFAGQQTEFKILSLHPGQKYLVQVRCKPDHGYWSAWSPATFIQIPSDFTMNDTTVWISVAVLSAVICLIIVWAVALKGYSMVTCIFPPVPGPKIKGFDAHLLEKGKSEELLSALGCQDFPPTSDYEDLLVEYLEVDDSEDQHLMSVHSKEHPSQGMKPTYLDPDTDSGRGSCDSPSLLSEKCEEPQANPSTFYDPEVIEKPENPETTHTWDPQCISMEGKIPYFHAGGSKCSTWPLPQPSQHNPRSSYHNITDVCELAVGPAGAPATLLNEAGKDALKSSQTIKSREEGKATQQREVESFHSETDQDTPWLLPQEKTPFGSAKPLDYVEIHKVNKDGALSLLPKQRENSGKPKKPGTPENNKEYAKVSGVMDNNILVLVPDPHAKNVACFEESAKEAPPSLEQNQAEKALANFTATSSKCRLQLGGLDYLDPACFTHSFH | 130 ± 7 |  |  | 
13 | Progesterone Receptor: over-expressed control protein, cotransfected construct (protein, UniProt P06401 1-933, looked up) Progesterone receptor: MTELKAKGPRAPHVAGGPPSPEVGSPLLCRPAAGPFPGSQTSDTLPEVSAIPISLDGLLFPRPCQGQDPSDEKTQDQQSLSDVEGAYSRAEATRGAGGSSSSPPEKDSGLLDSVLDTLLAPSGPGQSQPSPPACEVTSSWCLFGPELPEDPPAAPATQRVLSPLMSRSGCKVGDSSGTAAAHKVLPRGLSPARQLLLPASESPHWSGAPVKPSPQAAAVEVEEEDGSESEESAGPLLKGKPRALGGAAAGGGAAAVPPGAAAGGVALVPKEDSRFSAPRVALVEQDAPMAPGRSPLATTVMDFIHVPILPLNHALLAARTRQLLEDESYDGGAGAASAFAPPRSSPCASSTPVAVGDFPDCAYPPDAEPKDDAYPLYSDFQPPALKIKEEEEGAEASARSPRSYLVAGANPAAFPDFPLGPPPPLPPRATPSRPGEAAVTAAPASASVSSASSSGSTLECILYKAEGAPPQQGPFAPPPCKAPGASGCLLPRDGLPSTSASAAAAGAAPALYPALGLNGLPQLGYQAAVLKEGLPQVYPPYLNYLRPDSEASQSPQYSFESLPQKICLICGDEASGCHYGVLTCGSCKVFFKRAMEGQHNYLCAGRNDCIVDKIRRKNCPACRLRKCCQAGMVLGGRKFKKFNKVRVVRALDAVALPQPVGVPNESQALSQRFTFSPGQDIQLIPPLINLLMSIEPDVIYAGHDNTKPDTSSSLLTSLNQLGERQLLSVVKWSKSLPGFRNLHIDDQITLIQYSWMSLMVFGLGWRSYKHVSGQMLYFAPDLILNEQRMKESSFYSLCLTMWQIPQEFVKLQVSQEEFLCMKVLLLLNTIPLEGLRSQTQFEEMRSSYIRELIKAIGLRQKGVVSSSQRFYQLTKLLDNLHDLVKQLHLYCLNTFIQSRALSVEFPEMMSEVIAAQLPKILAGMVKPLLFHKK | 103 ± 5 |  |  | 
